In publication PMC10318062 (Nature Communications, 2023):

B1: REGN10933 (sdFab) (Fab, V domains shown)
VH: QVQLVESGGGLVKPGGSLRLSCAASGFTFSDYYMSWIRQAPGKGLEWVSYITYSGSTIYYADSVKGRFTISRDNAKSSLYLQMNSLRAEDTAVYYCARDRGTTMVPFDYWGQGTLVTVSS
VL: DIQMTQSPSSLSASVGDRVTITCQASQDITNYLNWYQQKPGKAPKLLIYAASNLETGVPSRFSGSGSGTDFTFTISGLQPEDIATYYCQQYDNLPLTFGGGTKVEIK
B2: REGN10987 (sdFab) (Fab, V domains shown)
VH: QVQLVESGGGVVQPGRSLRLSCAASGFTFSNYAMYWVRQAPGKGLEWVAVISYDGSNKYYADSVKGRFTISRDNSKNTLYLQMNSLRTEDTAVYYCASGSDYGDYLLVYWGQGTLVTVSS
VL: QSALTQPASVSGSPGQSITISCTGTSSDVGGYNYVSWYQQHPGKAPKLMIYDVSKRPSGVSNRFSGSKSGNTASLTISGLQSEDEADYYCNSLTSISTWVFGGGTKLTVL
B3: AZD8895 (sdFab) (Fab, V domains shown)
VH: EVQLVQSGPEVKKPGTSVKVSCKASGFTFMSSAVQWVRQARGQRLEWIGWIVIGSGNTNYAQKFQERVTITRDMSTSTAYMELSSLRSEDTAVYYCAAPYCSSISCNDGFDIWGQGTMVTVSS
VL: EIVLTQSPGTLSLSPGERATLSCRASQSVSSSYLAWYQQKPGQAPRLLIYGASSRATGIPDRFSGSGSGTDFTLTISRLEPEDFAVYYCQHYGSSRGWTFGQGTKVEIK
B4: LY-CoV1404 (sdFab) (Fab, V domains shown)
VH: QITLKESGPTLVKPTQTLTLTCTFSGFSLSISGVGVGWLRQPPGKALEWLALIYWDDDKRYSPSLKSRLTISKDTSKNQVVLKMTNIDPVDTATYYCAHHSISTIFDHWGQGTLVTVSS
VL: QSALTQPASVSGSPGQSITISCTATSSDVGDYNYVSWYQQHPGKAPKLMIFEVSDRPSGISNRFSGSKSGNTASLTISGLQAEDEADYYCSSYTTSSAVFGGGTKLTVL
B5: S2P6 (sdFab) (Fab, V domains shown)
VH: EVQLVQSGAEVKKPGASVKVSCKASGYTFTSQYMHWVRQAPGQGLEWIGIINPSGVHTSYAQKFQGRVTLTRDTSTSTLYMELSSLRSEDTAVYYCARGSPKGAFDYWGQGTLVTVSS
VL: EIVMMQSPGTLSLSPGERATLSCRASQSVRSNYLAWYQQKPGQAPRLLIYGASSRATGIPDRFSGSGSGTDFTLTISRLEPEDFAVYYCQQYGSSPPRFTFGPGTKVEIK

Tests used:
[1] = biological target: SARS-CoV-2 Receptor Binding Domain (RBD) (SARS-CoV-2, UniProt P0DTC2); experiment: AlphaScreen or HTRF; conditions: one partner purified
HCoV-OC43 S = HCoV-OC43 S (HCoV-OC43, strain ; reference …, UniProt P36334); experiment: AlphaScreen or HTRF; conditions: one partner purified
Chain of HCoV-OC43 S (P36334 14-1353): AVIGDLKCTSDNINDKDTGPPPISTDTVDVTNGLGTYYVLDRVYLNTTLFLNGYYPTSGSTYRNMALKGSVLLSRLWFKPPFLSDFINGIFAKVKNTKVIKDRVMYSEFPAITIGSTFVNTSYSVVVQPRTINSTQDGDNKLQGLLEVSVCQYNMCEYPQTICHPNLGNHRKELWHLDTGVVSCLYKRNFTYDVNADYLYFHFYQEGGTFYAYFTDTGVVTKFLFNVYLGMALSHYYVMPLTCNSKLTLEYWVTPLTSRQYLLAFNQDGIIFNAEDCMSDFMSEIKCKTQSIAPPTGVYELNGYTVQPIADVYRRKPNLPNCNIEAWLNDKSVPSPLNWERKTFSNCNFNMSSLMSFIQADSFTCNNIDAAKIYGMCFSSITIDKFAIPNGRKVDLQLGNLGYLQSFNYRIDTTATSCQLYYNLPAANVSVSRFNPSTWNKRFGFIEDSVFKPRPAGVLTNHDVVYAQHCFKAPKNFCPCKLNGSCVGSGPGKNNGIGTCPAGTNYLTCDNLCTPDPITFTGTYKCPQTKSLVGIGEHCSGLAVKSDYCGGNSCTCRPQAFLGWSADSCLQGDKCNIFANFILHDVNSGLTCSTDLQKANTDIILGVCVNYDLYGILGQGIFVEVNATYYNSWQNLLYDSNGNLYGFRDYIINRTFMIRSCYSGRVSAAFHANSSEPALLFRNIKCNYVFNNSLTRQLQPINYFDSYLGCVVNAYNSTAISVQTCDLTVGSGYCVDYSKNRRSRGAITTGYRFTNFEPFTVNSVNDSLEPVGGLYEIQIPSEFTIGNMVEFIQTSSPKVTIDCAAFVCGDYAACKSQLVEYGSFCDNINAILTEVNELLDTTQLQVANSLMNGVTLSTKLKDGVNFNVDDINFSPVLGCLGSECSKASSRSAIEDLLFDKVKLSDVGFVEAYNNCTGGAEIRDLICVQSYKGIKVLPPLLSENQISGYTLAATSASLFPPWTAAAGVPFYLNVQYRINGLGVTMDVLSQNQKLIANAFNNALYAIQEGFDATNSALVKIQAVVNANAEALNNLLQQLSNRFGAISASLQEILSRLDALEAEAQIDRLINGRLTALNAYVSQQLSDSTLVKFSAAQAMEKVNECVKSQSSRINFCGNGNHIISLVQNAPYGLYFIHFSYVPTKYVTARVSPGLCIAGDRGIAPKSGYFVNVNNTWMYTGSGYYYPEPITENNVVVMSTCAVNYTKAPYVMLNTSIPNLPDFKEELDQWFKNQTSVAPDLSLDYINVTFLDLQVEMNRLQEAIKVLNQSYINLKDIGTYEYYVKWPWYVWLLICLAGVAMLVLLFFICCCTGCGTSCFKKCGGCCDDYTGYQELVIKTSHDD

Binder | binding result [1] | binding result (HCoV-OC43 S)
B1 | binds | 
B2 | binds | 
B3 | binds | 
B4 | binds | 
B5 |  | binds
